Data set [1] deals with the molecule itself. The data set is described as follows: crystal structure; [4Fe-4S]-ScNsrR dimer complexed with a 23 bp hmpA1 operator dsDNA fragment; 3.0 Å; crystallised anaerobically; space group P6_(5).
In data set [2] the target is T1, [4Fe-4S]-NsrR (ScNsrR) (Streptomyces coelicolor, UniProt Q9L132 1-148).
T1 sequence: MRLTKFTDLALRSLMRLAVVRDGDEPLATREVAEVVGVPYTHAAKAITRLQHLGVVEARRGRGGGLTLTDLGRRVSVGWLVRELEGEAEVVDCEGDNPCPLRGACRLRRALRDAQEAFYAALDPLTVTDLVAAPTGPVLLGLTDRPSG
The data set is described as follows: EMSA; [4Fe-4S] cluster; EMSA: 10 mM Tris, 54 mM KCl, 0.3% glycerol, 1.32 mM GSH, pH 7.5, on ice, ~4 nM DNA, up to ~20-fold molar excess [4Fe-4S] NsrR. Crystal complex: 50 mM Tris pH 8.0, 500 mM NaCl, 5% glycerol, 20 C, anaerobic; grown in PEG, 30 mM MgCl2, 30 mM CaCl2, MOPS/HEPES pH 8.0. The settings on record: protein: recombinant; chain copies: 2; label: 6-FAM (from PCR primers); blunt. For orientation: A gel shift assay detects complexes by their altered migration in electrophoresis.

Data set [3] has as its target T1, [4Fe-4S]-NsrR (ScNsrR). Description: EMSA; [4Fe-4S] cluster; no clear difference from wild type; EMSA: 10 mM Tris, 54 mM KCl, 0.3% glycerol, 1.32 mM GSH, pH 7.5, on ice, ~4 nM DNA, up to ~20-fold molar excess [4Fe-4S] NsrR. Crystal complex: 50 mM Tris pH 8.0, 500 mM NaCl, 5% glycerol, 20 C, anaerobic; grown in PEG, 30 mM MgCl2, 30 mM CaCl2, MOPS/HEPES pH 8.0. The note with it: protein: recombinant; chain copies: 2; label: 6-FAM (from PCR primers); blunt.

Data set [4] addresses T1, [4Fe-4S]-NsrR (ScNsrR). The data set is described as follows: EMSA; [4Fe-4S] cluster; essentially stoichiometric, no significant difference; EMSA: 10 mM Tris, 54 mM KCl, 0.3% glycerol, 1.32 mM GSH, pH 7.5, on ice, ~4 nM DNA, up to ~20-fold molar excess [4Fe-4S] NsrR. Crystal complex: 50 mM Tris pH 8.0, 500 mM NaCl, 5% glycerol, 20 C, anaerobic; grown in PEG, 30 mM MgCl2, 30 mM CaCl2, MOPS/HEPES pH 8.0. The settings on record: protein: recombinant; chain copies: 2; label: 6-FAM (from PCR primers); blunt.

Data set [5] addresses T1, [4Fe-4S]-NsrR (ScNsrR). Description: X-ray crystallography; [4Fe-4S] cluster; EMSA: 10 mM Tris, 54 mM KCl, 0.3% glycerol, 1.32 mM GSH, pH 7.5, on ice, ~4 nM DNA, up to ~20-fold molar excess [4Fe-4S] NsrR. Crystal complex: 50 mM Tris pH 8.0, 500 mM NaCl, 5% glycerol, 20 C, anaerobic; grown in PEG, 30 mM MgCl2, 30 mM CaCl2, MOPS/HEPES pH 8.0. The note with it: protein: recombinant; chain copies: 2; blunt.

The text below walks through data of paper PMC9338935, “Structural determinants of DNA recognition by the NO sensor NsrR and related Rrf2-type [FeS]-transcription factors” (Communications Biology, 2022).

For orientation: stoichiometry N means a count of units in the complex or per binding partner.

Numbering of substitutions follows the chain as printed.

B1: [4Fe-4S]-NsrR from Streptomyces coelicolor (natural protein)
chain: T1 sequence
notes: NsrR, NO-sensing Rrf2 family transcription factor of Streptomyces coelicolor; also called ScNsrR; [4Fe-4S]-ScNsrR
In the case of B1, the “stoichiometry N” value in data set [1] is 2.

B2: Av003 wild type hmpA1 probe (dsDNA)
DNA 1: CTAAAACGACGGCCAGTCGGGATGACGGGCGGCGGCCCCCTGAGGCCGTCGAGCTGTGGCCTAAAACACGAATATCATCTACCAATTAAGGAGTCGCTGTGCTCTCCGAACAGTCCGTTCCCGTGGTCCGAGCCGTCATAGCTGTTTCCTG
DNA 2: CAGGAAACAGCTATGACGGCTCGGACCACGGGAACGGACTGTTCGGAGAGCACAGCGACTCCTTAATTGGTAGATGATATTCGTGTTTTAGGCCACAGCTCGACGGCCTCAGGGGGCCGCCGCCCGTCATCCCGACTGGCCGTCGTTTTAG
Take B2: the binding result in data set [4Fe-4S]-NsrR (ScNsrR) [2] was “binds”.

B3: Av005 hmpXT2 probe (dsDNA)
DNA 1: B2 DNA 1 with T73A, C79T
DNA 2: B2 DNA 2 with G73A, A79T
For B3, in data set [4Fe-4S]-NsrR (ScNsrR) [3], the binding result is recorded as “binds”.

B4: Av007 hmpG/C probe (dsDNA)
DNA 1: B2 DNA 1 with T73C, A74G, T75C, A77G, T78C
DNA 2: B2 DNA 2 with A74G, T75C, A77G, T78C, A79G
Turning to B4, the binding result in data set [4Fe-4S]-NsrR (ScNsrR) [4] is “binds”.

B5: Av006 hmpA/T probe (dsDNA)
DNA 1: B2 DNA 1 with C76T, C79T
DNA 2: B2 DNA 2 with G73A, G76A
For the molecule B5, the binding result in data set [4Fe-4S]-NsrR (ScNsrR) [4] was “binds”.

B6: Av004 hmpXT1 probe (dsDNA)
DNA 1: B2 DNA 1 with T75A, A77T
DNA 2: B2 DNA 2 with T75A, A77T
For B6, the binding result in data set [4Fe-4S]-NsrR (ScNsrR) [3] is reported as “binds”.

B7: hmpA1 operator 23 bp (dsDNA)
DNA 1: AACACGAATATCATCTACCAATT
DNA 2: AATTGGTAGATGATATTCGTGTT
In the case of B7, the binding result in data set [4Fe-4S]-NsrR (ScNsrR) [5] is on record as “binds”.
